Data as given in US20240417446A1 (US Dept. of Health and Human Services, published 2024).

Tests used:
[1] = target: T1, SARS-CoV-2 spike protein on pseudovirus (SARS-CoV-2, UniProt P0DTC2 14-1273); test: cell-based or functional assay
BSA [2] = target: T2, BSA (bovine, UniProt P02769); test: Protein ELISA, antigen coated, HRP-anti-Flag detection, absorbance 450 nm
T2 construct: also called bovine serum albumin

[3] = target: SARS-CoV-1 spike protein on pseudovirus (SARS-CoV-1, UniProt P59594 14-1255); test: cell-based or functional assay
[4] = target: T1, SARS-CoV-2 spike protein on pseudovirus; test: cell-based or functional assay; remark: listed apart in the source
[5] = target: T1, SARS-CoV-2 spike protein on pseudovirus; test: cell-based or functional assay; remark: listed apart in the source
A431-SARS-CoV-S = test: Flow cytometry on A431 cells expressing SARS-CoV spike, anti-FLAG-APC detection
BSA [6] = target: T2, BSA; test: Protein ELISA, antigen coated, HRP-anti-Flag detection, absorbance 450 nm; remark: listed apart in the source
BSA [7] = target: T2, BSA; test: Protein ELISA, antigen coated, HRP-anti-Flag detection, OD450

T2 sequence (P02769 25-607 limits assumed): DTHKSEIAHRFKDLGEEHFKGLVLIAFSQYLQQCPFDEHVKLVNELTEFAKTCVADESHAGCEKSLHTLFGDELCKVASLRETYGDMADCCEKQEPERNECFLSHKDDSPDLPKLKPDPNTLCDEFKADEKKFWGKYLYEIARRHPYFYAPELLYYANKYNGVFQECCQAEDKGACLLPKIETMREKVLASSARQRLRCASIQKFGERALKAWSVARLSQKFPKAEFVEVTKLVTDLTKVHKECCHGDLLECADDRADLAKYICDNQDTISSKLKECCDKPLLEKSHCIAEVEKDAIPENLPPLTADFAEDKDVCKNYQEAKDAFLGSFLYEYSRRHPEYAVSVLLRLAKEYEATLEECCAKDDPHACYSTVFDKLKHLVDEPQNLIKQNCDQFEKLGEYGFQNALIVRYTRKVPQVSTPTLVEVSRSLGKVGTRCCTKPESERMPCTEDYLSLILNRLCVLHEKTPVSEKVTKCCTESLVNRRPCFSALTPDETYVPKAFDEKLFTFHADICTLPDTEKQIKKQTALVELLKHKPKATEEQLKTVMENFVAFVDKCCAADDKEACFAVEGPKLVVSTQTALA

| Binder | Neutralizing Power, SARS-CoV-2 Pseudovirus Neutralization Assay [5] [%] | binding result (A431-SARS-CoV-S) | also measured |
| --- | --- | --- | --- |
| NCI-CoV-S2A9 (VNAR) VNAR: ARVDQTPRSVTKETGESLTINCVLRDASYALGRTCWYRKKSGSTNEESISKGGRYVETVNSGSKSFSLRINDLTVEDGGTYRCGVSTPWSCDYGPLCFYAACGDGTVVTVN | 90 |  | IC50, neutralization of the original strain of SARS-CoV-2 pseudovirus [1]: 1.39 µM; IC50, pseudovirus neutralization (luciferase, 293-hACE2 cells) [1]: 1.29 µM; binding result (BSA [2]): no binding (tested: 10 µg/ml); IC50 for neutralizing pseudovirus [3]: 49.3 µM; IC50 for neutralizing pseudovirus [4]: 4.34 µM |
| NCI-CoV-CGF10 (VHH) VHH: AVQLVESGGGLVQPGGSLRLSCAASGFTFSSYGMHWVRQAPGKGLERVAGINWDGSNSYYTETVKGRFTISRDNAKNTAYLQMNSLKPEDTAMYYCRTLILDSDCDPGSTYRYAWGQGTQVTVSS | 20 | no binding |  |
| NCI-CoV-S2G8 (VNAR) VNAR: ARVDQTPQTITKETGESLTINCVLRDSNCPLSNTYWYRKKSGSTNEESISKGGRYVETVNSGSKSFSLRINDLTVEDSGTYRCKVRTHWSICWEMGLEPNYDVYGGGTVVTVN | 50 | binds | binding result (BSA [6]): no binding (tested: 10 µg/ml) |
| NCI-CoV-S3A10 (VNAR) VNAR: ARVDQTPRSVTKETGESLTINCVLRDASYALGSTCWYRKKSGSTNEESISKGGRYVETVNSGSKSFSLRINDLTVEDGGTYRCGRIQNTKAVLLPCVYAACGDGTVVTVN | 60 |  |  |
| NCI-CoV-S4A9 (VNAR) VNAR: ARVDQTPRSVTKETGESLTINCVLRDASYALGSTCWYRKKSGSTNEESISKGGRYVETVNSGSKSFSLRINDLTVEDGGTYRCGVQSRWGAVPKLCSNYAACGDGTAVTVN | 30 |  |  |
| NCI-CoV-CG2G2 (VHH) VHH: AVQLVESGGGSVPPGGSLTLSCTVSDNIFRTYAVGWFRQAPEKRCQWIATLNADESTEYNVAVTGRFTISRDNSGRSVYLQMDNLNSEDTAIYYCASLARKWSCHDSWGRGTQVTVSS | 50 |  | binding result (BSA [7]): no binding (tested: 10 µg/ml) |
| NCI-CoV-CLA2 (VHH) VHH: QVQLVESGGGSVQPGGSLRLSCAVSGYTSSSYCFGWFRQAPGKDREGIIAMEPGNTYTAGAVKGRFTISRDNAKNMVYLQMNSLKPDDTAMYYCAASPYPGTWLNPDLFDTWGQGTQVTVSS | 45 |  |  |
| NCI-CoV-CG2D11 (VHH) VHH: AVQLVDSGGGSVQAGGSLRLSCAGSAFTYSSYCMGWFRQAPGKEREAVAAINSGTSSTYYADSVKGRFTVSQDNANNTVYLLMISLKPEDTAIYICAALVAPDYDDYDVAAPDNFDYWGQGTQVTVSS | 40 |  |  |
| NCI-CoV-CGH3 (VHH) VHH: AVQLVESGGGLVQPGGSLRLSCAASGFTFSSYAMGWVRQAPGKGLEWISAINSGGDIRYYADSVKGRFTISRDNAKNTLYLQMNSLKPEDTAVYYCATDDEILSYGLGTSFDYWGQGTQVTVSS | 30 | no binding |  |
| NCI-CoV-CL3H4 (VHH) VHH: DVQLVESGGGAVKPGGSLTLTCTVQEGSRNCVGWFRQGSGKDRQAVAMINGNGGTTNYDDRVKGRFQISRDGSLVHLRMNDVKLGDTDIYYCRQGQTYDCWGGTWTDSGWGQGTQVTVSS | 30 |  |  |
